B1: PS3B27 (bispecific antibody)
chain 1: not shown
chain 2: not shown
chain 3: EVQLVESGGGLVQPGGSLRLSCAASGFTFNTYAMNWVRQAPGKGLEWVARIRSKYNNYATYYAASVKGRFTISRDDSKNSLYLQMNSLKTEDTAVYYCARHGNFGNSYVSWFAYWGQGTLVTVSSASTKGPSVFPLAPCSRSTSESTAALGCLVKDYFPEPVTVSWNSGALTSGVHTFPAVLQSSGLYSLSSVVTVPSSSLGTKTYTCNVDHKPSNTKVDKRVESKYGPPCPPCPAPEAAGGPSVFLFPPKPKDTLMISRTPEVTCVVVDVSQEDPEVQFNWYVDGVEVHNAKTKPREEQFNSTYRVVSVLTVLHQDWLNGKEYKCKVSNKGLPSSIEKTISKAKGQPREPQVYTLPPSQEEMTKNQVSLTCLVKGFYPSDIAVEWESNGQPENNYKTTPPVLDSDGSFLLYSKLTVDKSRWQEGNVFSCSVMHEALHNHYTQKSLSLSLGK
chain 4: QTVVTQEPSLTVSPGGTVTLTCRSSTGAVTTSNYANWVQQKPGQAPRGLIGGTNKRAPGTPARFSGSLLGGKAALTLSGVQPEDEAEYYCALWYSNLWVFGGGTKLTVLGQPKAAPSVTLFPPSSEELQANKATLVCLISDFYPGAVTVAWKADSSPVKAGVETTTPSKQSNNKYAASSYLSLTPEQWKSHRSYSCQVTHEGSTVEKTVAPTECS
B2: PS3B60 (bispecific antibody, human IgG4 S228P, kappa, F234A L235A)
heavy: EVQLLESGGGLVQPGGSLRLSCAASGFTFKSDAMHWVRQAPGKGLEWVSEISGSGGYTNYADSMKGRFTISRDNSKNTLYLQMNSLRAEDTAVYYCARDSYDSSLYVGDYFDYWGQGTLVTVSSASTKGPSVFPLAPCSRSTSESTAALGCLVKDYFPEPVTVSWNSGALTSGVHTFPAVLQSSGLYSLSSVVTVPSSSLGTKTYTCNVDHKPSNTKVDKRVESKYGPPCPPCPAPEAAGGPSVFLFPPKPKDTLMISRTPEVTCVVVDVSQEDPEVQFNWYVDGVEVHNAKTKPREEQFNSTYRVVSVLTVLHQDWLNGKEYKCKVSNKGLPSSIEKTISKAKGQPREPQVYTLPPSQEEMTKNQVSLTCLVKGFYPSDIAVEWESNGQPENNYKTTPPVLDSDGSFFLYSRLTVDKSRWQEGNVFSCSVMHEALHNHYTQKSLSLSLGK
light: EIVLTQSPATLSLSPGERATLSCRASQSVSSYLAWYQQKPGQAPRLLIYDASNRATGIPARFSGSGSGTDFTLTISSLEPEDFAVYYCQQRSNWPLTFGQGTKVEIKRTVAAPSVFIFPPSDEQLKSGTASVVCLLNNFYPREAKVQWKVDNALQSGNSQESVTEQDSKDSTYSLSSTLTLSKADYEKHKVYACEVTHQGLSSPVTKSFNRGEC
VH: EVQLVESGGGLVQPGGSLRLSCAASGFTFNTYAMNWVRQAPGKGLEWVARIRSKYNNYATYYAASVKGRFTISRDDSKNSLYLQMNSLKTEDTAVYYCARHGNFGNSYVSWFAYWGQGTLVTVSS
VL: QTVVTQEPSLTVSPGGTVTLTCRSSTGAVTTSNYANWVQQKPGQAPRGLIGGTNKRAPGTPARFSGSLLGGKAALTLSGVQPEDEAEYYCALWYSNLWVFGGGTKLTVL
notes: IgG4 PAA; CD3 arm with F405L, R409K; also called PSMB344 x CD3B219
B3: PS3B62 (bispecific antibody, human IgG4 S228P, kappa, F234A L235A)
heavy: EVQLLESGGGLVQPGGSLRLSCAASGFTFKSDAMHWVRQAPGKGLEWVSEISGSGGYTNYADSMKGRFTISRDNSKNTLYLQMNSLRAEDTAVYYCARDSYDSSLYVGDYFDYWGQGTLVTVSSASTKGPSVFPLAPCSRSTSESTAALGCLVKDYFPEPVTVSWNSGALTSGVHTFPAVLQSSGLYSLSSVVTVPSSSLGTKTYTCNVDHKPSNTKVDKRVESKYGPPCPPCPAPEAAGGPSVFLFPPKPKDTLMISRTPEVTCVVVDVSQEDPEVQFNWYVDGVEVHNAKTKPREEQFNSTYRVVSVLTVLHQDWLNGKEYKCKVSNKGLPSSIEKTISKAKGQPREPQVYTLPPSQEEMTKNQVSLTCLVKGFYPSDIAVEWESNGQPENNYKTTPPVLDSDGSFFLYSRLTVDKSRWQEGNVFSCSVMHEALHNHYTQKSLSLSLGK
light: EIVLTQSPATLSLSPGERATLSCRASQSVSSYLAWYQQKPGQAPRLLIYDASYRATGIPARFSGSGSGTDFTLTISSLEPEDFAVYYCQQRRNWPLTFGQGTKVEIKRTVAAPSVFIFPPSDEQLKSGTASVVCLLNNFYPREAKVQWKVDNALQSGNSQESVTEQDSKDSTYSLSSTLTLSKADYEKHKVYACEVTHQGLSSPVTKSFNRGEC
VH: B2 VH
VL: B2 VL
notes: IgG4 PAA; CD3 arm with F405L, R409K; also called PSMB346 x CD3B219
B4: PS3B63 (bispecific antibody, human IgG4 S228P, kappa, F234A L235A)
heavy: not shown
light: not shown
VH: B2 VH
VL: B2 VL
notes: IgG4 PAA; CD3 arm with F405L, R409K; also called PSMB347 x CD3B219
B5: PS3B70 (bispecific antibody, human IgG4 S228P, kappa, F234A L235A)
heavy: not shown
light: not shown
VH: B2 VH
VL: B2 VL
notes: IgG4 PAA; CD3 arm with F405L, R409K; also called PSMB358 x CD3B219
B6: PS3B72 (bispecific antibody, human IgG4 S228P, kappa, F234A L235A)
heavy: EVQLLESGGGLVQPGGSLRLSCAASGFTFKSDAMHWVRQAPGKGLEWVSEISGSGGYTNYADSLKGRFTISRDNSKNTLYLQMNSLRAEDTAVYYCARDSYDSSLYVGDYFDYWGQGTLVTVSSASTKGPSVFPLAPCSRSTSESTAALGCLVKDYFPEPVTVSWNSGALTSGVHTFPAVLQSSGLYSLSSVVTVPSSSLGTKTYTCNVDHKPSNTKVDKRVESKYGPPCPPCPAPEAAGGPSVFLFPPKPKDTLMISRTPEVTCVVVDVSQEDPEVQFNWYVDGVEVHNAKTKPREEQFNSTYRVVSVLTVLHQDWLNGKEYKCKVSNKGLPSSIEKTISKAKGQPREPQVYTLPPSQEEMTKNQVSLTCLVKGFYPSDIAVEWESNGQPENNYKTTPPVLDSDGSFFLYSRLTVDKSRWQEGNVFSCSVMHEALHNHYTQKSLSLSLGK
light: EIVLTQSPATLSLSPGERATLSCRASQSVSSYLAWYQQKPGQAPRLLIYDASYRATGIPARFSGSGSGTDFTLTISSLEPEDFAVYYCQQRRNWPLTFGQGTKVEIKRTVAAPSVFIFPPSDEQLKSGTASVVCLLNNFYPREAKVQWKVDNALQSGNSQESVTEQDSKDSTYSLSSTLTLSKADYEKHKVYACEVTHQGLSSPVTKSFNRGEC
VH: B2 VH
VL: B2 VL
notes: IgG4 PAA; CD3 arm with F405L, R409K; also called PSMB360 x CD3B219
B7: PS3B75 (bispecific antibody, human IgG4 S228P, kappa, F234A L235A)
heavy: not shown
light: not shown
VH: B2 VH
VL: B2 VL
notes: IgG4 PAA; CD3 arm with F405L, R409K; also called PSMB363 x CD3B219
B8: PS3B74 (bispecific antibody, human IgG4 S228P, kappa, F234A L235A)
heavy: not shown
light: not shown
VH: B2 VH
VL: B2 VL
notes: IgG4 PAA; CD3 arm with F405L, R409K; also called PSMB362 x CD3B219
B9: PS3B61 (bispecific antibody, human IgG4 S228P, kappa, F234A L235A)
heavy: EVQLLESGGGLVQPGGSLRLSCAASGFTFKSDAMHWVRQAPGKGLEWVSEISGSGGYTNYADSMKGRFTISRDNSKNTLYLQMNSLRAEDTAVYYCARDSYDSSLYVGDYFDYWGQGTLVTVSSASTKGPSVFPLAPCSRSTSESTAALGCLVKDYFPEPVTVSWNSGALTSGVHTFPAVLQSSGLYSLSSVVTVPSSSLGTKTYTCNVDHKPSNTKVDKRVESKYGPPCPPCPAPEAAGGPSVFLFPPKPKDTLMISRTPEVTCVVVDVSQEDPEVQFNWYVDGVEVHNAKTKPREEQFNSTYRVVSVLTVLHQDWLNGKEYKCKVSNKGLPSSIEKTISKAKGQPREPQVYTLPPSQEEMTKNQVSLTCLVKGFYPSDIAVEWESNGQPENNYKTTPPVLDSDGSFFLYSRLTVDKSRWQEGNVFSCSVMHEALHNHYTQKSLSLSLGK
light: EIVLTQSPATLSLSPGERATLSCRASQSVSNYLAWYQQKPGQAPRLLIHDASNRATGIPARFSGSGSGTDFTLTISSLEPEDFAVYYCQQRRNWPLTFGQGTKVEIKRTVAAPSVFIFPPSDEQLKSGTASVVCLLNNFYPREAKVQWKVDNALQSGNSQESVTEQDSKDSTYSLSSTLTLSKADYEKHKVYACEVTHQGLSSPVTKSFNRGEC
VH: B2 VH
VL: B2 VL
notes: IgG4 PAA; CD3 arm with F405L, R409K; also called PSMB345 x CD3B219
B10: PS3B64 (bispecific antibody, human IgG4 S228P, kappa, F234A L235A)
heavy: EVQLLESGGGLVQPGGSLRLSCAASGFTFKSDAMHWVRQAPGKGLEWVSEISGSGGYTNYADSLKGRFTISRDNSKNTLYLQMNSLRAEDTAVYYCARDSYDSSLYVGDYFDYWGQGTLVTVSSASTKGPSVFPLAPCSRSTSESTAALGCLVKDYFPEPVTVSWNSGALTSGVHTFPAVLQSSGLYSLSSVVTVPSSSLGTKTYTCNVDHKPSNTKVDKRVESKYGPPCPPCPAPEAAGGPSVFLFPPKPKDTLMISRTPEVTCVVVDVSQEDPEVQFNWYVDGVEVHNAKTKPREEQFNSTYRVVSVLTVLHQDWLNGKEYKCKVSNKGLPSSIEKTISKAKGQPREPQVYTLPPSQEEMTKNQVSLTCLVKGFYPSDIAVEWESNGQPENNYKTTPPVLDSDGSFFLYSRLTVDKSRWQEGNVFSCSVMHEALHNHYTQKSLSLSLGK
light: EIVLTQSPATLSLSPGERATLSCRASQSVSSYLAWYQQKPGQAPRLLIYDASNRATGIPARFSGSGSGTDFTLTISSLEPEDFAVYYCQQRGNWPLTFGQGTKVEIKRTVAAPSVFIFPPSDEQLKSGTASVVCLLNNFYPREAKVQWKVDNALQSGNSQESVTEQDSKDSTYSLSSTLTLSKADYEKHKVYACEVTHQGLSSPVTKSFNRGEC
VH: B2 VH
VL: B2 VL
notes: IgG4 PAA; CD3 arm with F405L, R409K; also called PSMB349 x CD3B219
B11: PS3B71 (bispecific antibody, human IgG4 S228P, kappa, F234A L235A)
heavy: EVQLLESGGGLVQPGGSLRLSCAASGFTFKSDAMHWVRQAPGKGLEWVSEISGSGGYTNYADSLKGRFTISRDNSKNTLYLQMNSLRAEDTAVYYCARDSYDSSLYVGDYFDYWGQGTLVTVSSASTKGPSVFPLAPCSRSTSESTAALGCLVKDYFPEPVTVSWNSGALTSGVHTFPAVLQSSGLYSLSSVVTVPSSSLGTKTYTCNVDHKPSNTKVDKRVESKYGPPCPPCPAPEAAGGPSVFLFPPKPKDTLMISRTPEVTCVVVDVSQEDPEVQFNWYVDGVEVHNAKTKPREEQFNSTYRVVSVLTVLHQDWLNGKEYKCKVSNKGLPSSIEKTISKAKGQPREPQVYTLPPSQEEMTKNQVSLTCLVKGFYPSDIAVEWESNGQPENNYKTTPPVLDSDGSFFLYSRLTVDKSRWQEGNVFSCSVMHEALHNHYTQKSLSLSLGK
light: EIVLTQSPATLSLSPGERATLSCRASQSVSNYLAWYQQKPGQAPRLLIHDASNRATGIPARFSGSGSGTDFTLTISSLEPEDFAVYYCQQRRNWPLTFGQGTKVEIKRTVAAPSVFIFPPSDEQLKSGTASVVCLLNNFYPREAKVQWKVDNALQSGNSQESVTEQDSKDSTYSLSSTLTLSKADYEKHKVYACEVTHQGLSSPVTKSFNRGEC
VH: B2 VH
VL: B2 VL
notes: IgG4 PAA; CD3 arm with F405L, R409K; also called PSMB359 x CD3B219
B12: PS3B73 (bispecific antibody, human IgG4 S228P, kappa, F234A L235A)
heavy: not shown
light: not shown
VH: B2 VH
VL: B2 VL
notes: IgG4 PAA; CD3 arm with F405L, R409K; also called PSMB361 x CD3B219
B13: PS3B84 (bispecific antibody, human IgG4 S228P, kappa, lambda, F234A L235A)
heavy 1: not shown
light 1: not shown
heavy 2: QVQLQQSGPRLVRPSQTLSLTCAISGDSVFNNNAAWSWIRQSPSRGLEWLGRTYYRSKWLYDYAVSVKSRITVNPDTSRNQFTLQLNSVTPEDTALYYCARGYSSSFDYWGQGTLVTVSSASTKGPSVFPLAPCSRSTSESTAALGCLVKDYFPEPVTVSWNSGALTSGVHTFPAVLQSSGLYSLSSVVTVPSSSLGTKTYTCNVDHKPSNTKVDKRVESKYGPPCPPCPAPEAAGGPSVFLFPPKPKDTLMISRTPEVTCVVVDVSQEDPEVQFNWYVDGVEVHNAKTKPREEQFNSTYRVVSVLTVLHQDWLNGKEYKCKVSNKGLPSSIEKTISKAKGQPREPQVYTLPPSQEEMTKNQVSLTCLVKGFYPSDIAVEWESNGQPENNYKTTPPVLDSDGSFLLYSKLTVDKSRWQEGNVFSCSVMHEALHNHYTQKSLSLSLGK
light 2: QSALTQPASVSGSPGQSITISCTGTSSNIGTYKFVSWYQQHPDKAPKVLLYEVSKRPSGVSSRFSGSKSGNTASLTISGLQAEDQADYHCVSYAGSGTLLFGGGTKLTVLGQPKAAPSVTLFPPSSEELQANKATLVCLISDFYPGAVTVAWKADSSPVKAGVETTTPSKQSNNKYAASSYLSLTPEQWKSHRSYSCQVTHEGSTVEKTVAPTECS
notes: IgG4 PAA; also called PSMB344 x CD3B376
B14: PS3B83 (bispecific antibody, human IgG4 S228P, kappa, lambda, F234A L235A)
heavy 1: not shown
light 1: not shown
heavy 2: B13 heavy 2
light 2: B13 light 2
notes: IgG4 PAA; also called PSMB363 x CD3B376
B15: PS3B82 (bispecific antibody, human IgG4 S228P, kappa, lambda, F234A L235A)
heavy 1: not shown
light 1: not shown
heavy 2: B13 heavy 2
light 2: B13 light 2
notes: IgG4 PAA; also called PSMB362 x CD3B376
B16: PS3B78 (bispecific antibody, human IgG4 S228P, kappa, lambda, F234A L235A)
heavy 1: not shown
light 1: not shown
heavy 2: B13 heavy 2
light 2: B13 light 2
notes: IgG4 PAA; also called PSMB359 x CD3B376
B17: PS3B76 (bispecific antibody, human IgG4 S228P, kappa, lambda, F234A L235A)
heavy 1: not shown
light 1: not shown
heavy 2: B13 heavy 2
light 2: B13 light 2
notes: IgG4 PAA; also called PSMB358 x CD3B376
B18: PS3B85 (bispecific antibody, human IgG4 S228P, kappa, lambda, F234A L235A)
heavy 1: not shown
light 1: not shown
heavy 2: B13 heavy 2
light 2: B13 light 2
notes: IgG4 PAA; also called PSMB345 x CD3B376
B19: PS3B81 (bispecific antibody, human IgG4 S228P, kappa, lambda, F234A L235A)
heavy 1: not shown
light 1: not shown
heavy 2: B13 heavy 2
light 2: B13 light 2
notes: IgG4 PAA; also called PSMB361 x CD3B376
B20: PS3B79 (bispecific antibody, human IgG4 S228P, kappa, lambda, F234A L235A)
heavy 1: not shown
light 1: not shown
heavy 2: B13 heavy 2
light 2: B13 light 2
notes: IgG4 PAA; also called PSMB360 x CD3B376
B21: PS3B80 (bispecific antibody, human IgG4 S228P, kappa, lambda, F234A L235A)
heavy 1: not shown
light 1: not shown
heavy 2: B13 heavy 2
light 2: B13 light 2
notes: IgG4 PAA; also called PSMB347 x CD3B376
B22: PS3B86 (bispecific antibody, human IgG4 S228P, kappa, lambda, F234A L235A)
heavy 1: not shown
light 1: not shown
heavy 2: B13 heavy 2
light 2: B13 light 2
notes: IgG4 PAA; also called PSMB346 x CD3B376
B23: PS3B77 (bispecific antibody, human IgG4 S228P, kappa, lambda, F234A L235A)
heavy 1: not shown
light 1: not shown
heavy 2: B13 heavy 2
light 2: B13 light 2
notes: IgG4 PAA; also called PSMB349 x CD3B376

By EC50 (read off the curve) is commonly meant the concentration that produces a half-maximal response. The low end stands for higher potency in that assay, the high end for lower potency in that assay.

In one test the target is T1, human PSMA on cells (LNCaP) (human, UniProt Q04609 1-750).
T1 construct: whole, on cells; also called LNCaP cells
T1 sequence (Q04609 whole entry): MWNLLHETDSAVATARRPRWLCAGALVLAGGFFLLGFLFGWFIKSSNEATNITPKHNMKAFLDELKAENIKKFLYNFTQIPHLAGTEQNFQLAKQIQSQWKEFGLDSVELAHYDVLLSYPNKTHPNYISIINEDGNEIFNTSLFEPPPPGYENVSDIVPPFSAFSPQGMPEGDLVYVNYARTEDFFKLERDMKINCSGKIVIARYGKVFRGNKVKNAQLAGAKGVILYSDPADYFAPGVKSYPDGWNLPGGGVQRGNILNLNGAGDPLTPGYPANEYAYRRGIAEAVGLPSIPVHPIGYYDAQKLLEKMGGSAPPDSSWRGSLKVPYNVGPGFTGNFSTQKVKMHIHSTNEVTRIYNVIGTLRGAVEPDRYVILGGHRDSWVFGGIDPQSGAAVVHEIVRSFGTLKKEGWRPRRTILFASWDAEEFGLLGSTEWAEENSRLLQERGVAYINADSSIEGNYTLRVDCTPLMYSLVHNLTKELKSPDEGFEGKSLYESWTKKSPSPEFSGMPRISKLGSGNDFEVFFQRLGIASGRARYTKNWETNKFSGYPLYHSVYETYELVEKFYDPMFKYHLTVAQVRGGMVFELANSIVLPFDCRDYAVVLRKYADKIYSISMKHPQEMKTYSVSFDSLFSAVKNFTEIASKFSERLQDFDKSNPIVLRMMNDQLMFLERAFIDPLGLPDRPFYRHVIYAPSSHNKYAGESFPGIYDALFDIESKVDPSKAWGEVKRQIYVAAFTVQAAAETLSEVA
Briefly: flow cytometry cell binding assay on LNCaP cells. The protocol:
(§1) PSMA×CD3 bispecific antibodies were tested for binding to PSMA positive cell line, LNCAP, to PSMA negative cell line, PC3. To assess the binding capabilities of the PSMA bispecific antibodies, the cell-binding assay was utilized (described previously). Bispecific antibodies were normalized for protein concentration and then incubated with the same number of cells expressing either human or cyno PSMA. The MFI at each concentration was collected by flow cytometry and plotted as a function of concentration. Data was transformed via log 10 and then plotted. Nonlinear regression of binding curves was done to determine EC50s.
(In general: A flow cytometer gives signals particle by particle.)
Consider B1, for which the half-maximal effective concentration (EC50 (read off the curve)) is about 6 nM.
As to B2, the binding result is reported as “binds”.
The same measure, in the same setting: for B3 the value was “binds”.
For the molecule B4, the “EC50 (read off the curve)” value was about 2 nM.
As for B5, the binding result is reported as “binds”.
Consider B6, for which the binding result is listed as “binds”.
On to B7, for which the binding result is recorded as “binds”.
As to B8, the binding result is listed as “binds”.
In the case of B9, the binding result is recorded as “binds”.
Take B10: the binding result is recorded as “binds”.
As to B11, the concentration for a half-maximal effect (EC50 (read off the curve)) is about 8 nM.
As for B12, the binding result was “binds”.

A further test deals with T1, human PSMA on cells (LNCaP). In words: flow cytometry cell binding assay on LNCaP cells. The source holds these as a separate data set. The protocol: as §1
Turning to B1, the 50% effective concentration (EC50 (read off the curve)) is about 6 nM.
B13: the binding result is given as “binds”.
Still for that read-out and setting: for B14 the value was “binds”; for B15, “binds”.
On the same count and under the same terms, under B16 stands “binds”; under B17, “binds”.
With B18, the binding result was “binds”.
The same measure, in the same setting: under B19 stands “binds”; under B20, “binds”.
Still for that read-out and setting: for B21 the value was “binds”; for B22, “binds”.
With B23, the binding result is on record as “binds”.
